Test results reported in article doi:10.1101/2020.09.10.291138.

Target: human IgM-Fc (heavy chain constant domains Cμ2, Cμ3, Cμ4 and the tailpiece) (human)
Assay: cryo-EM structure

stoichiometry N: 5
Substance: human IgM-Fc (heavy chain constant domains Cμ2, Cμ3, Cμ4 and the tailpiece) (domain or fragment)
